Test results as given in patent US20210139548A1 (published 2021).
*1 amine or outer side, *2 acyl side, *3 side chain or, on linkers, in order; H or OH if unused. Side-chain parts run from the residue outwards. The star is where a group is joined. C18 diacid = O=C(O)CCCCCCCCCCCCCCCCC(=O)*; γGlu = O=C(O)[C@H](CCC(=O)[*:2])N[*:1]; Isovaleryl = CC(C)CC(=O)*; AEEA = NCCOCCOCC(=O)O

T1: human neuropeptide Y2 receptor (human, UniProt P49146 1-381)
T1 sequence (looked up): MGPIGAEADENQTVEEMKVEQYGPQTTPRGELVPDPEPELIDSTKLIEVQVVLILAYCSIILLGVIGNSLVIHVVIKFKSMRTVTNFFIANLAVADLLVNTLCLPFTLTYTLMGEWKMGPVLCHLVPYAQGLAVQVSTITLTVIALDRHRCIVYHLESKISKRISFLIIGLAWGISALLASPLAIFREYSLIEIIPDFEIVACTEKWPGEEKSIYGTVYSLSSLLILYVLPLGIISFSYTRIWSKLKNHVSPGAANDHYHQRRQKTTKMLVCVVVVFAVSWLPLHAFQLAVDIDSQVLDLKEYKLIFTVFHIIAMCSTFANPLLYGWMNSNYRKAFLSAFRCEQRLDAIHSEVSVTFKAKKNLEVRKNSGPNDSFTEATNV

T2: human NPY1 receptor (human, UniProt P25929 1-384)
T2 sequence (looked up): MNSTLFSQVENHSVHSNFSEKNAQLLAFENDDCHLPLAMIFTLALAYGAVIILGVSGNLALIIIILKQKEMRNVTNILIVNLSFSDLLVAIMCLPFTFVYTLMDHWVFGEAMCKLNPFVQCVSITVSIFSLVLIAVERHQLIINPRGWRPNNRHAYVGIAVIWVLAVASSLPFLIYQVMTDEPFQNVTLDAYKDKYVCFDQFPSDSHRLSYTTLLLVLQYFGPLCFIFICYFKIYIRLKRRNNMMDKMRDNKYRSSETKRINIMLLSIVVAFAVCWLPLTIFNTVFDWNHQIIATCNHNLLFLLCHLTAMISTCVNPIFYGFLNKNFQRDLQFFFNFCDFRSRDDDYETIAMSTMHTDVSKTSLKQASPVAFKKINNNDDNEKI

T3: human NPY5 receptor (human, UniProt Q15761 1-445)
T3 sequence (looked up): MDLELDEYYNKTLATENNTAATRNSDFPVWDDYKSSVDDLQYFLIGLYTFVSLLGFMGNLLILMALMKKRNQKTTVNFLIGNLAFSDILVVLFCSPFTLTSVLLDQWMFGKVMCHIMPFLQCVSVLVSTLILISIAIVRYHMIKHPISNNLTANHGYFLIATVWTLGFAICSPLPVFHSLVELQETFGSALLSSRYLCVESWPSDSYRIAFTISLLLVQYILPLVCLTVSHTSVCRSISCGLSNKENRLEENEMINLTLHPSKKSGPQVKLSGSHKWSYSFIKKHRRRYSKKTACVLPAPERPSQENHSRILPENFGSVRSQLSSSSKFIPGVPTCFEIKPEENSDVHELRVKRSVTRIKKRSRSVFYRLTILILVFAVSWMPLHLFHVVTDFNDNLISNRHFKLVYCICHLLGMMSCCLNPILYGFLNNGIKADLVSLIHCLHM


Columns and labels:
[1] = target: human NPY4 receptor (human, UniProt P50391 1-375); assay: cell-based or functional assay
Sequence of human NPY4 receptor (P50391 whole entry): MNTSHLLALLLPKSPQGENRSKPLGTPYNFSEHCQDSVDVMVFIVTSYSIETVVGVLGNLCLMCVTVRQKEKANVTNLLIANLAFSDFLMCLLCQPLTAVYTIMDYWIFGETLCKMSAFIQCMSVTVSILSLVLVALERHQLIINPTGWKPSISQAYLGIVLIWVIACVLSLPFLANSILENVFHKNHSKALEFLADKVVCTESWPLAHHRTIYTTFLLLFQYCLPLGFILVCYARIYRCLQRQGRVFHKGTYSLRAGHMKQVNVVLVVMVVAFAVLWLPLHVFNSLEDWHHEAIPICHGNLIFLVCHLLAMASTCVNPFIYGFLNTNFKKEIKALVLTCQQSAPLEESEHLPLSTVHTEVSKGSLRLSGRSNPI

[2] = target: T1, human neuropeptide Y2 receptor; assay: cell-based or functional assay
[3] = target: T2, human NPY1 receptor; assay: cell-based or functional assay
[4] = target: T3, human NPY5 receptor; assay: cell-based or functional assay
[5] = target: T1, human neuropeptide Y2 receptor; assay: radioligand competition (125I-PYY(1-36)), hNPY2R membranes
In short: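 Commercial human Y2 receptor membranes (0.5 μg protein/well) were incubated with peptide for 2 h at room temperature in 50 mM HEPES, 5 mM MgCl₂, 1 mM CaCl₂, pH 7.4, with 0.2% ovalbumin. Bound radioligand was separated on PEI-soaked GF/C filters and counted by scintillation, and IC₅₀ came from nonlinear sigmoidal regression.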

Row | EC50 (HTRF cAMP Gi assay) [1] [nM] | EC50 (HTRF cAMP Gi assay) [2] [nM] | EC50 (HTRF cAMP Gi assay) [3] [nM] | EC50 (HTRF cAMP Gi assay) [4] [nM] | Ki [5] [nM] | Binder
1 | > 5000 | 0.284 | > 5000 | > 5000 | 6.94 | Isovaleryl-APEK([AEEA-AEEA-γGlu-C18 diacid])PEEDAEPEELQEYYVSLRHYYNWLTRQRY-NH2 (SMILES CC(C)CC(=O)N[C@@H](C)C(=O)N1CCC[C@H]1C(=O)N[C@@H](CCC(=O)O)C(=O)N[C@@H](CCCCNC(=O)COCCOCCNC(=O)COCCOCCNC(=O)CC[C@H](NC(=O)CCCCCCCCCCCCCCCCC(=O)O)C(=O)O)C(=O)N1CCC[C@H]1C(=O)N[C@@H](CCC(=O)O)C(=O)N[C@@H](CCC(=O)O)C(=O)N[C@@H](CC(=O)O)C(=O)N[C@@H](C)C(=O)N[C@@H](CCC(=O)O)C(=O)N1CCC[C@H]1C(=O)N[C@@H](CCC(=O)O)C(=O)N[C@@H](CCC(=O)O)C(=O)N[C@@H](CC(C)C)C(=O)N[C@@H](CCC(N)=O)C(=O)N[C@@H](CCC(=O)O)C(=O)N[C@@H](Cc1ccc(O)cc1)C(=O)N[C@@H](Cc1ccc(O)cc1)C(=O)N[C@H](C(=O)N[C@@H](CO)C(=O)N[C@@H](CC(C)C)C(=O)N[C@@H](CCCNC(=N)N)C(=O)N[C@@H](Cc1c[nH]cn1)C(=O)N[C@@H](Cc1ccc(O)cc1)C(=O)N[C@@H](Cc1ccc(O)cc1)C(=O)N[C@@H](CC(N)=O)C(=O)N[C@@H](Cc1c[nH]c2ccccc12)C(=O)N[C@@H](CC(C)C)C(=O)N[C@H](C(=O)N[C@@H](CCCNC(=N)N)C(=O)N[C@@H](CCC(N)=O)C(=O)N[C@@H](CCCNC(=N)N)C(=O)N[C@@H](Cc1ccc(O)cc1)C(N)=O)[C@@H](C)O)C(C)C) [Compound 105]
2 | > 5000 | 0.235 | > 5000 | > 5000 | 4.33 | Isovaleryl-APEK([AEEA-AEEA-γGlu-C18 diacid])PEEDASEEELQEYYVSLRHYYNWLTRQRY-NH2 (SMILES CC(C)CC(=O)N[C@@H](C)C(=O)N1CCC[C@H]1C(=O)N[C@@H](CCC(=O)O)C(=O)N[C@@H](CCCCNC(=O)COCCOCCNC(=O)COCCOCCNC(=O)CC[C@H](NC(=O)CCCCCCCCCCCCCCCCC(=O)O)C(=O)O)C(=O)N1CCC[C@H]1C(=O)N[C@@H](CCC(=O)O)C(=O)N[C@@H](CCC(=O)O)C(=O)N[C@@H](CC(=O)O)C(=O)N[C@@H](C)C(=O)N[C@@H](CO)C(=O)N[C@@H](CCC(=O)O)C(=O)N[C@@H](CCC(=O)O)C(=O)N[C@@H](CCC(=O)O)C(=O)N[C@@H](CC(C)C)C(=O)N[C@@H](CCC(N)=O)C(=O)N[C@@H](CCC(=O)O)C(=O)N[C@@H](Cc1ccc(O)cc1)C(=O)N[C@@H](Cc1ccc(O)cc1)C(=O)N[C@H](C(=O)N[C@@H](CO)C(=O)N[C@@H](CC(C)C)C(=O)N[C@@H](CCCNC(=N)N)C(=O)N[C@@H](Cc1c[nH]cn1)C(=O)N[C@@H](Cc1ccc(O)cc1)C(=O)N[C@@H](Cc1ccc(O)cc1)C(=O)N[C@@H](CC(N)=O)C(=O)N[C@@H](Cc1c[nH]c2ccccc12)C(=O)N[C@@H](CC(C)C)C(=O)N[C@H](C(=O)N[C@@H](CCCNC(=N)N)C(=O)N[C@@H](CCC(N)=O)C(=O)N[C@@H](CCCNC(=N)N)C(=O)N[C@@H](Cc1ccc(O)cc1)C(N)=O)[C@@H](C)O)C(C)C) [Compound 164]
